Data from article PMC7347944 (Communications Biology, 2020).

B1: huPrP(23−144) (domain or fragment)
chain: KKRPKPGGWNTGGSRYPGQGSPGGNRYPPQGGGGWGQPHGGGWGQPHGGGWGQPHGGGWGQPHGGGWGQGGGTHSQWNKPSKPKTNMKHMAGAAAAGAVVGGLGGYMLGSAMSRPIIHFGSD
B2: full-length huPrP(23−230) (natural protein)
chain: not shown
B3: huPrP(23−111) (domain or fragment)
chain: KKRPKPGGWNTGGSRYPGQGSPGGNRYPPQGGGGWGQPHGGGWGQPHGGGWGQPHGGGWGQPHGGGWGQGGGTHSQWNKPSKPKTNMKH

The binders below were run against T1, amyloid-β oligomers (UniProt P05067 672-713) (assay: co-sedimentation). Settings: both partners purified.
T1 construct: also called AβO; Aβ oligomers
B1: binds.
B2: binds.
B3: binds.
